Measured values from IntAct's records for PubMed 26051712.

B1: Inner nuclear membrane protein SRC1 (Saccharomyces cerevisiae), Q03707 (parent)
chain: MNSDLEYLEDGFDPNSMKVATLRRILVENNVDFPSNARKNALVGLFDEKVKPQIPQLRKMYLNVRPSDEGIVKMDRPSSSPSIASPRRSRRARREKSASPMAKQFKKNRILDDVSNDDDDDDDDDDDNDKKDDPLIVPSGTDTDEVDDEEDDVITSSSNKSDTNDFQQNSDTRKKRKDPDSDDWSESNSKENKIDNKHLNLLSSDSEIEQDYQKAKKRKTSDLNQEHGNGSAILGKLSVKTPIKNTNRKPVSMDNFNDSLTSSGTENDPFVPNIRHNPKELGTANGTGHSTPLSKLKVSASFADKLPQKEVPSTILVPEVEQQEPSQSERTPSLFSSEGSGSESEAPLLPEITTPGPHQPMGNTSNNVVEMIDTDSSNLVSDEDEVLVPTRIETPQLPTEKDVEKCEARVQELQEEVNEQLEHENGSEFDVKQGSGKVGNRHKFKRALKFLSKSLLALFLFCIFIVIPLLFGLWYREQRLLIGYCGHEVPSHRVSGNSFEFIQKLDNLLQDYRPKCIPCPPNGICYPYLKLKCKPDYKLAPSRLDFLEIIPAQGKCVKDDKKQQLVSEVVEKSLEFLRAKNAQISCGDGKDDIESGMTEDALYQIFNEARAPWIRDDEFEDLWIQVIKDLTEEPEILWRQLSPTDNNIGGNSNNIIKTNDVPRQKRHLPEKFISKTRNFRSTSKKYIGMKCRFEREIYQTYKKFQRPIWLMFLLIVISKVIEIKLKNYYRKKARIEELVTQTMEKLKFQKIKSMSDPKENAYLSIVQLRDIFLSDIVDLKYKNQLWSEVVKYLEHNNSNIKSNLTEIRGEIMKCWEWIGPMELNEPKDSAENKI
B2: Inner nuclear membrane protein HEH2 (Saccharomyces cerevisiae), Q03281 (parent)
chain: MDHRNLDPKTLKVSQLRRVLVENDVAFPANARKPVLVKLFEEKVRQRLQSSPEASKVRTSIQKVVKSGAKNADRKKTLKSKKLESSSSESKTVKDENVETNKRKREQISTDNEAKMQIQEEKSPKKKRKKRSSKANKPPESPPQSKSDGKATSADLTSELETVEELHKKDSSDDKPRVKELPKPELPNLKVSNEFLAQLNKELASAATENYDHSIKSTDLSSIRIETEEPVGPSTGAETRNESEVMENINLEVQPEVKEAKEELTKISETFDNQDEEDTSRLSSKKNIRSPKGRTRHFIANKTKRGIDIMKPFIAHLFIWLWNGAIFLSIICPILFGLWYREQRIQVGYCGHEKPLKSLAISAFPQTERVDSVLQAYRPNCLECPEHGICSSFMNVECEPGYEPKSSILETYGIIPFPKYCAKDESKEKEVDELVWKVNEYLKKKNAQHECGEGENLFESGETETKLYDIFSHSRPSWESQREFNDHWKNVLEILKKKDDIIWLPLDFETNGKREKSKSNNTNYIYRSTSKKWVTLQCHLEGDIQEYITKYGGSLFITLGVLFLIKKIQSTLDNYVQGEQIIEKLVKEAIDKLKDVKKNKGEEPFLTTVQLRATLLSDIPNIKEQNNLWAQTKEKIMKEQSENIELYLLEENGEIMTCWEWKE

Variants of: B1
Settings: with ima1_yeast SRP1, Q02821
Chain of ima1_yeast SRP1, Q02821 (Q02821 whole entry): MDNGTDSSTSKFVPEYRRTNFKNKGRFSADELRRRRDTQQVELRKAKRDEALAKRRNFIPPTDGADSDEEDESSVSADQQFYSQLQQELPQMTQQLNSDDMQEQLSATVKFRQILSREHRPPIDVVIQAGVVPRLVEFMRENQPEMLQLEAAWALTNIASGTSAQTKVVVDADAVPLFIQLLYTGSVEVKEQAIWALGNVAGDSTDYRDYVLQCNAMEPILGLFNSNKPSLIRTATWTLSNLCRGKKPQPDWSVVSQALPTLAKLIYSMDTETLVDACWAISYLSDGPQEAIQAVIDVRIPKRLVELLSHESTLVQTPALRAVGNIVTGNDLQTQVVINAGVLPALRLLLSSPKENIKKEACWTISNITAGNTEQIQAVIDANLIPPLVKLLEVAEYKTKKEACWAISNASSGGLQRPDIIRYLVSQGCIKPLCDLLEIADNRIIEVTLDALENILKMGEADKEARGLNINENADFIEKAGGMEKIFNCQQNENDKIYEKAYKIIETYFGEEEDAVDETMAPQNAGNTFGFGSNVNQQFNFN

effect of a mutation on the interaction	Variant
decreasing interaction strength	R176A;K190A
decreasing interaction strength	R176A

Variants of: B1
Settings: with ima1_yeast SRP1, Q02821
Remark: another data set of the same source

effect of a mutation on the interaction	Variant
decreasing interaction strength	K190A

Variants of: B2
Settings: with ima1_yeast SRP1, Q02821

effect of a mutation on the interaction	Variant
decreasing interaction strength	R103A
decreasing interaction strength	K126A
decreasing interaction strength	R103A;K126A
